# Reference: PMC9400960
# Molecular target: PABP1-190 (RRM1/2) (human, UniProt P11940 1-190)
# Experiment: MST competition
# Sequence of PABP1-190 (RRM1/2) (P11940 1-190): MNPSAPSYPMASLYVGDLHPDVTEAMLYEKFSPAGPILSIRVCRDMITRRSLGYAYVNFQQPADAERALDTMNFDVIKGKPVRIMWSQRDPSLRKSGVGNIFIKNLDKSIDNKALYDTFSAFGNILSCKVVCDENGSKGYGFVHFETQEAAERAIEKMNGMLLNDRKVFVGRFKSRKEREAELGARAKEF
row,Binder,binding signal
1,"AAAAAAAAAAAA (XNA, 2'-O-methyl-A in middle part; positions in Figure 2/Table 1) [Am2]",~7 fold higher Kd app than A12
2,"AAAAAAAAAAAA (XNA, 2'-F-A in middle part; positions in Figure 2/Table 1) [AF2]",~4 fold higher Kd app than A12
3,"AAAAAAAAAAAA (ssRNA, N6-methyl-A in middle part; positions in Figure 2/Table 1) [m6A2]",~12 fold higher Kd app than A12
